The Human Domainome abundance scans (Beltran et al. 2025)
± gives the uncertainty stated by the source.

B1: Membrane-associated guanylate kinase, WW and PDZ domain-containing protein 3, residues 287 to 329; numbered along this chain, Q5TCQ9 (parent)
chain: MRDETLEPLPKNWEMAYTDTGMIYFIDHNTKTTTWLDPRLCKK

Variants of: B1
Test: abundance fitness (aPCA) (normalised: wild type 0, dead -1); higher = more abundant; growth selection in yeast, the domain comes from the species named
Details: Homo sapiens

| Variant | abundance fitness |
| --- | --- |
| L9W | -0.492 ± 0.073 |
| L9S | -0.621 ± 0.045 |
| L9R | -0.639 ± 0.058 |
| L9M | -0.106 ± 0.054 |
| L9V | -0.337 ± 0.036 |
| L9Q | -0.566 ± 0.057 |
| Y24S | -0.708 ± 0.058 |
| Y24K | -0.668 ± 0.071 |
| Y24L | -0.61 ± 0.036 |
| Y24H | -0.574 ± 0.11 |
| Y24G | -0.774 ± 0.036 |
| Y24A | -0.723 ± 0.039 |
| Y24W | -0.579 ± 0.037 |
| Y24E | -0.53 ± 0.043 |
| Y24I | -0.678 ± 0.12 |
| Y24D | -0.524 ± 0.12 |
| Y24V | -0.567 ± 0.04 |
| Y24C | -0.652 ± 0.042 |
| Y24F | -0.146 ± 0.06 |
| Y24T | -0.638 ± 0.072 |
| Y24Q | -0.582 ± 0.097 |
| Y24R | -0.598 ± 0.035 |
| T30L | -0.207 ± 0.035 |
| T30S | -0.051 ± 0.04 |

| Variant | abundance fitness |
| --- | --- |
| T30M | -0.21 ± 0.041 |
| T30Q | -0.139 ± 0.053 |
| T30E | -0.265 ± 0.037 |
| T30P | -0.887 ± 0.092 |
| T30G | -0.314 ± 0.029 |
| T30D | -0.281 ± 0.051 |
| T30K | -0.155 ± 0.094 |
| T30I | -0.423 ± 0.19 |
| T30W | -0.572 ± 0.047 |
| T30C | -0.271 ± 0.057 |
| T30A | -0.116 ± 0.035 |
| M22D | 0.084 ± 0.054 |
| M22R | -0.043 ± 0.033 |
| M22L | -0.043 ± 0.04 |
| M22E | 0.144 ± 0.044 |
| M22T | -0.005 ± 0.049 |
| M22S | 0.199 ± 0.13 |
| M22P | -0.62 ± 0.062 |
| M22Y | 0.004 ± 0.14 |
| M22Q | 0.096 ± 0.071 |
| M22K | 0.075 ± 0.07 |
| M22C | -0.028 ± 0.11 |
| M22V | -0.025 ± 0.041 |
| M22G | 0.006 ± 0.031 |

| Variant | abundance fitness |
| --- | --- |
| M22A | 0.081 ± 0.029 |
| M22H | -0.137 ± 0.06 |
| T20N | -0.132 ± 0.27 |
| T20S | -0.023 ± 0.053 |
| T20Y | -0.256 ± 0.067 |
| T20H | -0.345 ± 0.22 |
| T20I | -0.24 ± 0.053 |
| T20C | -0.077 ± 0.04 |
| T20M | -0.153 ± 0.042 |
| T20W | -0.328 ± 0.054 |
| T20G | -0.025 ± 0.028 |
| T20E | 0.017 ± 0.037 |
| T20D | -0.054 ± 0.07 |
| T20P | -0.48 ± 0.05 |
| W13E | -0.683 ± 0.045 |
| W13K | -0.67 ± 0.064 |
| W13T | -0.475 ± 0.042 |
| W13P | -0.715 ± 0.073 |
| W13I | -0.431 ± 0.059 |
| W13L | -0.635 ± 0.046 |
| W13V | -0.303 ± 0.03 |
| W13M | -0.398 ± 0.041 |
| W13R | -0.634 ± 0.04 |
| W13G | -0.696 ± 0.033 |

| Variant | abundance fitness |
| --- | --- |
| W13F | -0.221 ± 0.17 |
| W13Q | -0.729 ± 0.068 |
| W13C | -0.636 ± 0.063 |
| W13A | -0.668 ± 0.036 |
| W13S | -0.698 ± 0.096 |
| W13D | -0.773 ± 0.096 |
| I26D | -0.659 ± 0.13 |
| I26T | -0.437 ± 0.045 |
| I26C | -0.352 ± 0.058 |
| I26Y | -0.479 ± 0.14 |
| I26E | -0.543 ± 0.091 |
| I26K | -0.196 ± 0.051 |
| I26P | -0.868 ± 0.16 |
| I26G | -0.657 ± 0.039 |
| I26S | -0.634 ± 0.075 |
| I26W | -0.648 ± 0.056 |
| I26Q | -0.485 ± 0.092 |
| I26R | -0.321 ± 0.031 |
| I26L | -0.097 ± 0.044 |
| T32A | -0.207 ± 0.03 |
| T32D | -0.47 ± 0.079 |
| T32C | -0.101 ± 0.037 |
| T32E | -0.328 ± 0.051 |
| H28Q | -0.306 ± 0.054 |

| Variant | abundance fitness |
| --- | --- |
| H28T | -0.214 ± 0.06 |
| H28R | -0.164 ± 0.03 |
| H28D | -0.53 ± 0.11 |
| H28A | -0.323 ± 0.037 |
| H28I | -0.328 ± 0.066 |
| H28G | -0.275 ± 0.032 |
| H28E | -0.511 ± 0.047 |
| H28S | -0.28 ± 0.045 |
| H28V | -0.273 ± 0.031 |
| H28M | -0.386 ± 0.055 |
| H28P | -0.364 ± 0.042 |
| H28L | -0.379 ± 0.043 |
| F25G | -0.57 ± 0.03 |
| F25E | -0.565 ± 0.049 |
| F25W | -0.077 ± 0.036 |
| F25H | -0.421 ± 0.1 |
| F25D | -0.516 ± 0.042 |
| F25K | -0.68 ± 0.086 |
| F25C | -0.774 ± 0.049 |
| F25S | -0.616 ± 0.057 |
| F25Q | -0.634 ± 0.05 |
| F25P | -0.679 ± 0.041 |
| F25V | -0.989 ± 0.052 |
| F25I | -0.557 ± 0.14 |

| Variant | abundance fitness |
| --- | --- |
| F25M | -0.721 ± 0.43 |
| F25L | -0.82 ± 0.056 |
| F25R | -0.692 ± 0.035 |
| F25T | -0.662 ± 0.058 |
| P10F | -0.831 ± 0.071 |
| P10R | -0.685 ± 0.034 |
| P10V | -0.816 ± 0.089 |
| P10Q | -0.505 ± 0.048 |
| P10A | -0.392 ± 0.038 |
| P10C | -0.54 ± 0.11 |
| P10T | -0.462 ± 0.053 |
| P10H | -0.677 ± 0.087 |
| P10D | -0.527 ± 0.13 |
| P10I | -0.854 ± 0.12 |
| P10S | -0.496 ± 0.037 |
| P10W | -0.837 ± 0.058 |
| P10L | -0.613 ± 0.046 |
| P10E | -0.456 ± 0.057 |
| Y17K | -0.03 ± 0.056 |
| Y17V | 0 ± 0.034 |
| Y17N | -0.194 ± 0.068 |
| Y17G | -0.199 ± 0.033 |
| Y17W | -0.043 ± 0.037 |
| Y17R | 0.054 ± 0.029 |

| Variant | abundance fitness |
| --- | --- |
| Y17L | -0.034 ± 0.04 |
| Y17P | -0.376 ± 0.039 |
| Y17C | -0.052 ± 0.041 |
| Y17S | -0.024 ± 0.043 |
| Y17H | -0.121 ± 0.1 |
| Y17A | 0.026 ± 0.047 |
| Y17F | -0.043 ± 0.066 |
| Y17D | -0.323 ± 0.058 |
| Y17Q | -0.025 ± 0.071 |
| Y17E | 0.031 ± 0.037 |
| D27G | -0.903 ± 0.04 |
| D27C | -0.403 ± 0.081 |
| D27T | -1.08 ± 0.086 |
| D27R | -1.03 ± 0.047 |
| D27K | -0.98 ± 0.095 |
| D27M | -0.766 ± 0.066 |
| D27S | -0.644 ± 0.037 |
| D27E | -0.266 ± 0.042 |
| D27F | -0.716 ± 0.25 |
| D27L | -1.11 ± 0.094 |
| D27Y | -0.119 ± 0.18 |
| D27A | -0.789 ± 0.037 |
| D27P | -1.12 ± 0.12 |
